Assay results: the supplement of paper PMC9112550, “Optimization of the antimicrobial peptide Bac7 by deep mutational scanning” (BMC Biology, 2022)

System: Escherichia coli TOP10
Assay: shrunken log2 fold change of peptide-encoding DNA abundance (4.5 h post-induction vs induction); higher = less antimicrobial activity (less host growth inhibition)
Conditions: time post-induction: 4.5 h; library: site-saturation at positions 5, 18, 19, 20
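Further: peptides expressed intracellularly from a pBAD plasmid library in pooled LB shake-flask culture, induced with 0.3% L-arabinose, DNA abundance read by NGS, three biological replicates, DESeq2 with apeglm shrinkage.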

Sequence	shrunken log2 fold change
RRIRTRPPRLPRPRPRPLNQPRP	-0.417
RRIRRRPPRLPRPRPRPIHKPRP	0.27
RRIRVRPPRLPRPRPRPVWIPRP	-0.206
RRIRPRPPRLPRPRPRPMFLPRP	-0.269
RRIRDRPPRLPRPRPRPWGLPRP	0.0419
RRIRHRPPRLPRPRPRPNYGPRP	-0.0744
RRIRWRPPRLPRPRPRPDIRPRP	-0.0808
RRIRGRPPRLPRPRPRPVFSPRP	0.0314
RRIRFRPPRLPRPRPRPGRKPRP	0.107
RRIRHRPPRLPRPRPRPAEHPRP	-0.144
RRIRCRPPRLPRPRPRPSTKPRP	-0.277
RRIRWRPPRLPRPRPRPAILPRP	0.0915
RRIRMRPPRLPRPRPRPKWVPRP	0.466
RRIRNRPPRLPRPRPRPSLQPRP	-0.0436
RRIRQRPPRLPRPRPRPCSAPRP	-0.257
RRIRSRPPRLPRPRPRPLGLPRP	0.204
RRIRARPPRLPRPRPRPQIRPRP	0.0717
RRIRLRPPRLPRPRPRPGIGPRP	0.417
RRIRQRPPRLPRPRPRPHKKPRP	-0.215
RRIRVRPPRLPRPRPRPKWMPRP	-0.0468
RRIRTRPPRLPRPRPRPPLFPRP	0.482
RRIRYRPPRLPRPRPRPQDLPRP	0.0284
RRIRCRPPRLPRPRPRPTHQPRP	0.476

Sequence	shrunken log2 fold change
RRIRYRPPRLPRPRPRPMVDPRP	-0.248
RRIRKRPPRLPRPRPRPFDFPRP	0.0615
RRIRDRPPRLPRPRPRPPGFPRP	0.348
RRIRQRPPRLPRPRPRPRDKPRP	0.00325
RRIRWRPPRLPRPRPRPLCGPRP	1.71
RRIRIRPPRLPRPRPRPNVEPRP	-0.325
RRIRKRPPRLPRPRPRPWYDPRP	-0.153
RRIRCRPPRLPRPRPRPTNRPRP	-0.356
RRIRVRPPRLPRPRPRPVRFPRP	0.391
RRIRRRPPRLPRPRPRPGHPPRP	0.237
RRIRWRPPRLPRPRPRPAHLPRP	0.15
RRIRIRPPRLPRPRPRPHIPPRP	-0.482
RRIRWRPPRLPRPRPRPAWEPRP	0.534
RRIRRRPPRLPRPRPRPHNLPRP	-0.176
RRIRHRPPRLPRPRPRPIHGPRP	-0.0135
RRIRPRPPRLPRPRPRPVYSPRP	-0.297
RRIRFRPPRLPRPRPRPMDKPRP	-0.301
RRIRPRPPRLPRPRPRPNYTPRP	-0.679
RRIRTRPPRLPRPRPRPYVDPRP	0.0214
RRIRWRPPRLPRPRPRPVKQPRP	-0.092
RRIRWRPPRLPRPRPRPIQMPRP	-0.0543
RRIRKRPPRLPRPRPRPDILPRP	0.0039
RRIRDRPPRLPRPRPRPFEIPRP	-0.0367

Sequence	shrunken log2 fold change
RRIRIRPPRLPRPRPRPGWLPRP	-0.0831
RRIRWRPPRLPRPRPRPCDLPRP	-0.286
RRIRQRPPRLPRPRPRPPWKPRP	0.467
RRIRFRPPRLPRPRPRPFRSPRP	-0.0534
RRIRWRPPRLPRPRPRPAMWPRP	0.433
RRIRARPPRLPRPRPRPREGPRP	1.1
RRIRQRPPRLPRPRPRPHGNPRP	0.0941
RRIRLRPPRLPRPRPRPGTSPRP	-0.0167
RRIRKRPPRLPRPRPRPMISPRP	0.18
RRIRARPPRLPRPRPRPDRTPRP	0.192
RRIRPRPPRLPRPRPRPVIHPRP	-0.435
RRIRIRPPRLPRPRPRPCRTPRP	-0.333
RRIRFRPPRLPRPRPRPQHYPRP	-1.01
RRIRTRPPRLPRPRPRPCGDPRP	0.176
RRIRSRPPRLPRPRPRPSYEPRP	-0.426
RRIRTRPPRLPRPRPRPWKDPRP	0.0143
RRIRIRPPRLPRPRPRPHSYPRP	-0.244
RRIRNRPPRLPRPRPRPRNNPRP	-0.45
RRIRERPPRLPRPRPRPPDFPRP	0.00276
RRIRDRPPRLPRPRPRPIDEPRP	0.0126
RRIRYRPPRLPRPRPRPVKTPRP	-0.0365
RRIRIRPPRLPRPRPRPNMAPRP	-0.344
RRIRVRPPRLPRPRPRPQDCPRP	-0.172

Sequence	shrunken log2 fold change
RRIRYRPPRLPRPRPRPEVSPRP	-0.117
RRIRQRPPRLPRPRPRPLREPRP	1.44
RRIRTRPPRLPRPRPRPDFNPRP	-0.177
RRIRWRPPRLPRPRPRPQEVPRP	-0.0144
RRIRQRPPRLPRPRPRPFLVPRP	0.000414
RRIRIRPPRLPRPRPRPYKHPRP	-1.57
RRIRLRPPRLPRPRPRPTCQPRP	0.0421
RRIRYRPPRLPRPRPRPAFRPRP	-0.287
RRIRIRPPRLPRPRPRPKTTPRP	-0.301
RRIRHRPPRLPRPRPRPFQGPRP	-0.0278
RRIRTRPPRLPRPRPRPFSAPRP	0.0716
RRIRMRPPRLPRPRPRPPGGPRP	1.15
RRIRVRPPRLPRPRPRPMRTPRP	-0.0139
RRIRTRPPRLPRPRPRPEPIPRP	0.226
RRIRLRPPRLPRPRPRPPVFPRP	0.0392
RRIRYRPPRLPRPRPRPGKRPRP	-0.0167
RRIRIRPPRLPRPRPRPCPQPRP	-0.458
RRIRWRPPRLPRPRPRPVLMPRP	-0.0411
RRIRTRPPRLPRPRPRPIRMPRP	-0.441
RRIRTRPPRLPRPRPRPLMFPRP	-0.516
RRIRTRPPRLPRPRPRPKVKPRP	0.00985
RRIRNRPPRLPRPRPRPFAEPRP	-0.238
